Numbering of substitutions follows the chain as printed.
B1: lysine-replaced human TNF (ligand)
chain: VRSSSRTPSDMPVAHVVANPQAEGQLQWLNRRANALLANGVELRDNQLVVPSEGLYLIYSQVLFSGQGCPSTHVLLTHTISRIAVSYQTPVNLLSAIRSPCQRETPEGAEANPWYEPIYLGGVFQLEPGDRLSAEINRPDYLDFAESGQVYFGIIAL
notes: Parent of all clones; also called Lysine-replaced TNF; lysine-replaced mutant
B2: TNF mutant protein of clone No. 4 (ligand)
chain: B1 chain with L29K, R31A, R32G, E146S, S147T
notes: Mutant of lysine-replaced TNF, made in E. coli
B3: TNF mutant protein of clone No. 5 (ligand)
chain: B1 chain with L29R, R31S, R32H, A145S, E146G, S147T
notes: as for B2
B4: TNF mutant protein of clone No. 34 (ligand)
chain: B1 chain with A84S, V85A, S86D, Q88P, T89H
notes: as for B2
B5: TNF mutant protein of clone No. 27 (ligand)
chain: B1 chain with A84T, V85P, S86A, Q88P, T89R
notes: as for B2
B6: TNF mutant protein of clone No. 30 (ligand)
chain: B1 chain with A84T, V85P, S86G, Q88P, T89S
notes: as for B2
B7: TNF mutant protein of clone No. 20 (ligand)
chain: B1 chain with A84S, V85S, S86A, Q88A, T89S
notes: as for B2
B8: TNF mutant protein of clone No. 2 (ligand)
chain: B1 chain with L29T, R31G, R32Y
notes: as for B2
B9: TNF mutant protein of clone No. 31 (ligand)
chain: B1 chain with A84S, V85K, S86T, Q88S, T89H
notes: as for B2
B10: TNF mutant protein of clone No. 14 (ligand)
chain: B1 chain with E146N, S147D
notes: as for B2
B11: TNF mutant protein of clone No. 8 (ligand)
chain: B1 chain with L29R, R31E, R32H, A145N, E146N, S147A
notes: as for B2
B12: TNF mutant protein of clone No. 7 (ligand)
chain: B1 chain with L29H, R31N, R32T, A145D, E146S, S147N
notes: as for B2
B13: TNF mutant protein of clone No. 9 (ligand)
chain: B1 chain with L29S, R31P, R32M, E146N, S147P
notes: as for B2
B14: TNF mutant protein of clone No. 15 (ligand)
chain: B1 chain with A84T, V85N, S86H, Q88S, T89N
B15: TNF mutant protein of clone No. 16 (ligand)
chain: B1 chain with A84S, V85S, S86T, Q88P, T89D
notes: as for B2
B16: TNF mutant protein of clone No. 32 (ligand)
chain: B1 chain with A84T, V85D, S86R, Q88S, T89S
notes: as for B2
B17: TNF mutant protein of clone No. 33 (ligand)
chain: B1 chain with A84N, V85H, S86R, T89D
notes: as for B2
B18: TNF mutant protein of clone No. 24 (ligand)
chain: B1 chain with A84T, V85H, S86K, Q88P, T89Q
notes: as for B2
B19: TNF mutant protein of clone No. 19 (ligand)
chain: B1 chain with A84S, V85Y, S86N, Q88N, T89G
notes: as for B2
B20: TNF mutant protein of clone No. 18 (ligand)
chain: B1 chain with A84S, V85P, S86L, Q88P, T89K
notes: as for B2
B21: TNF mutant protein of clone No. 25 (ligand)
chain: B1 chain with A84S, V85K, S86T, Q88S, T89H
notes: as for B2
B22: TNF mutant protein of clone No. 21 (ligand)
chain: B1 chain with A84T, V85S, S86A, Q88G, T89P
notes: as for B2
B23: TNF mutant protein of clone No. 26 (ligand)
chain: B1 chain with A84S, V85S, S86H, Q88R, T89F
notes: as for B2
B24: TNF mutant protein of clone No. 23 (ligand)
chain: B1 chain with A84T, V85T, S86A, Q88S, T89G
notes: as for B2

target: T1, TNF-R1 (a protein having the amino acid sequence, Accession No. M58286 registered at GENBANK) (UniProt P19438 30-211, limits assumed); experiment: SPR (BIACORE 2000), receptor on sensor tip; grade 3 = 0.5 to 2 times that of recombinant TNF-α
T1 construct: also called TNF receptor having a molecular weight of 55 kilo daltons
T1 sequence (looked up): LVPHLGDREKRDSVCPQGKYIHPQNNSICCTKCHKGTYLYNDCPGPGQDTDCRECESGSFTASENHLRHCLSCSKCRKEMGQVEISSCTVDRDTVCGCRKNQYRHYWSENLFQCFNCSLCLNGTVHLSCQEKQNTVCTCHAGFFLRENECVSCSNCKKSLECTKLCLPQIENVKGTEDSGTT
From the text: (§1) Using the above detector based on surface plasmon resonance effect again, the resulting clones binding to TNF-R1 (or TNF-R2) were subjected to the remaining sensor tip conjugated with TNF-R2 (or TNF-R1) to measure receptor binding affinity and select clones having a variation of receptor binding affinity. […] The resulting DNAs were digested with restrict enzymes NdeI and BamHI to obtain DNA fragments. The resulting DNA fragments were introduced into a plasmid vector containing T7 promoter region, T7 terminator region, ampicillin resistant gene region and ColE1/Ori region (product name “pET-3a”, manufactured by “Novagen®” (EMD Biosciences, Inc.)) at the position of the above restriction sites. The resulting plasmid was introduced into E. coli BL21DE3 strain to obtain a transformed E. coli for producing the TNF mutant proteins. The obtained transformed E. coli was cultured according to usual method and centrifuged to collect E. coli pellet. The resulting pellet was washed twice with TES buffer (pH 8.0) (20 mM Tris-HCl, 10 mM ethylene diamine tetraacetic acid and 0.5 M sodium chloride) and admixed with TES buffer (pH 8.0) containing 0.2 mg/ml lysozyme. The resulting suspension was sonicated according to usual manner, and centrifuged to collect a precipitate containing the produced TNF mutant protein. The resulting precipitate was treated three times in a manner of admixing with TES buffer containing 1 (w/w) % Triton X-100, removed from supernatant by centrifuging, admixed with 50 mM Tris-HCl (pH 7.0) containing 8 M guanidine hydrochloride and 50 mM dithiothreitol, with stirring for 16 hours at ambient temperature under shielded condition, and centrifuged to collect a supernatant. The resulting supernatant was gently admixed with 100 time volumes of a aqueous solution containing 1 M Tris, 0.9 (w/v) % sodium chloride, 0.4 M L-arginine chloride, 2.5 mM reduced glutathione, 0.5 mM oxidized glutathione and 0.05 (w/v) % Tween 20, and kept at 4° C. for 16 hours.

Binder	binding affinity relative to recombinant TNF-α
B1	0.5 to 2 fold
B2	0.5 to 2 fold
B3	0.5 to 2 fold
B4	0.5 to 2 fold
B5	0.5 to 2 fold
B6	0.5 to 2 fold
B7	0.5 to 2 fold
B8	0.5 to 2 fold

target: T2, TNF-R2 (a protein having the amino acid sequence, Accession No. M55994 registered at GENBANK) (UniProt P20333 23-257, limits assumed); experiment: as above
T2 construct: also called TNF receptor with 75 kilo daltons
T2 sequence (looked up): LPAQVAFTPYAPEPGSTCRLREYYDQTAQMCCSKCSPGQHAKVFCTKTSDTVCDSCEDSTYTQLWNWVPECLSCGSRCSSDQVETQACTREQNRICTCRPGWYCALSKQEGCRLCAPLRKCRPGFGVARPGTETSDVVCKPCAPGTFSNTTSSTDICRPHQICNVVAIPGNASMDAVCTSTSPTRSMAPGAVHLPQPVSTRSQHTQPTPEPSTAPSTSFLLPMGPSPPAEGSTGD
From the text: as §1

Binder	binding affinity relative to recombinant TNF-α
B1	0.5 to 2 fold
B9	0.5 to 2 fold
B10	0.5 to 2 fold

target: T1, TNF-R1 (a protein having the amino acid …); experiment: SPR (BIACORE 2000), receptor on sensor tip; grade 2 = 0.5 to 0.1 time that of recombinant TNF-α
From the text: as §1

Binder	binding affinity relative to recombinant TNF-α
B11	0.1 to 0.5 fold
B12	0.1 to 0.5 fold
B13	0.1 to 0.5 fold
B10	0.1 to 0.5 fold
B14	0.1 to 0.5 fold

target: T2, TNF-R2 (a protein having the amino acid …); experiment: as above
From the text: as §1

Binder	binding affinity relative to recombinant TNF-α
B15	0.1 to 0.5 fold
B4	0.1 to 0.5 fold
B16	0.1 to 0.5 fold
B5	0.1 to 0.5 fold
B6	0.1 to 0.5 fold
B7	0.1 to 0.5 fold
B8	0.1 to 0.5 fold

target: T2, TNF-R2 (a protein having the amino acid …); experiment: SPR (BIACORE 2000), receptor on sensor tip; grade 1 = 0.001 to 0.1 time that of recombinant TNF-α
From the text: as §1

Binder	binding affinity relative to recombinant TNF-α
B11	0.001 to 0.1 fold
B12	0.001 to 0.1 fold
B13	0.001 to 0.1 fold
B17	0.001 to 0.1 fold
B18	0.001 to 0.1 fold
B19	0.001 to 0.1 fold
B14	0.001 to 0.1 fold
B20	0.001 to 0.1 fold
B21	0.001 to 0.1 fold
B22	0.001 to 0.1 fold
B23	0.001 to 0.1 fold
B24	0.001 to 0.1 fold

target: T1, TNF-R1 (a protein having the amino acid …); experiment: SPR (BIACORE 2000), receptor on sensor tip; grade 4 = two times or more that of recombinant TNF-α
From the text: as §1

Binder	binding affinity relative to recombinant TNF-α
B15	≥ 2 fold
B9	≥ 2 fold
B17	≥ 2 fold
B18	≥ 2 fold
B19	≥ 2 fold
B20	≥ 2 fold
B21	≥ 2 fold
B22	≥ 2 fold
B16	≥ 2 fold
B23	≥ 2 fold
B24	≥ 2 fold

target: T2, TNF-R2 (a protein having the amino acid …); experiment: SPR (BIACORE 2000), receptor on sensor tip; grade 0 = weakened to 0.001 or less of that of recombinant TNF-α
From the text: as §1

Binder	binding affinity relative to recombinant TNF-α (grade)
B2	≤ 0.001 times that of recombinant TNF-α
B3	≤ 0.001 times that of recombinant TNF-α
